Results on three molecules are retold here after patent US20240301385, “DNA MODIFYING ENZYMES AND ACTIVE FRAGMENTS AND VARIANTS THEREOF AND METHODS OF USE” (LIFEEDIT THERAPEUTICS, INC., published 2024).

B1: SGN000929 sgRNA ; SGN000929 target (ssRNA ; dsDNA)
RNA: AUCUGGAGGGAACUUACAGCAUAUGGUCAUAGUUCCAUGAAAGCCAAAAGUGGCUUUGAUGUUUCUAUGAUAAGGGUUUCGGCCCGUGGCGUCGGGGAUCGCCUGCCCAUUCCGAUGGGCUUCUCCCCAUUUAUU
DNA 1: ATCTGGAGGGAACTTACAGCATATG
DNA 2: CATATGCTGTAAGTTCCCTCCAGAT
B2: SGN001101 sgRNA ; SGN001101 target (ssRNA ; dsDNA)
RNA: AUAUUUUCUUUAAUGGUGCCAGGCAGUCAUAGUUCCAUUAAAGCCAAAAGUGGCUUUGAUGUUUCUAUGAUAAGGGUUUCGACCCGUGGCGUCGGGGAUCGCCUGCCCAUUGAAAUGGGCUUCUCCCCAU
DNA 1: ATATTTTCTTTAATGGTGCCAGGCA
DNA 2: TGCCTGGCACCATTAAAGAAAATAT
B3: SGN000169 sgRNA ; SGN000169 target (ssRNA ; dsDNA)
RNA: CACAUCUCGAGCAAGACGUUGUCAUAGUUCCAUUAAAGCCAAAAGUGGCUUUGAUGUUUCUAUGAUAAGGGUUUCGACCCGUGGCGUCGGGGAUCGCCUGCCCAUUGAAAUGGGCUUCUCCCCAUUUAUU
DNA 1: CACATCTCGAGCAAGACGTT
DNA 2: AACGTCTTGCTCGAGATGTG

The series addresses T1, APG09980.1-L16-nAPG07433.1 (truncated deaminase) (synthetic).
T1 chain: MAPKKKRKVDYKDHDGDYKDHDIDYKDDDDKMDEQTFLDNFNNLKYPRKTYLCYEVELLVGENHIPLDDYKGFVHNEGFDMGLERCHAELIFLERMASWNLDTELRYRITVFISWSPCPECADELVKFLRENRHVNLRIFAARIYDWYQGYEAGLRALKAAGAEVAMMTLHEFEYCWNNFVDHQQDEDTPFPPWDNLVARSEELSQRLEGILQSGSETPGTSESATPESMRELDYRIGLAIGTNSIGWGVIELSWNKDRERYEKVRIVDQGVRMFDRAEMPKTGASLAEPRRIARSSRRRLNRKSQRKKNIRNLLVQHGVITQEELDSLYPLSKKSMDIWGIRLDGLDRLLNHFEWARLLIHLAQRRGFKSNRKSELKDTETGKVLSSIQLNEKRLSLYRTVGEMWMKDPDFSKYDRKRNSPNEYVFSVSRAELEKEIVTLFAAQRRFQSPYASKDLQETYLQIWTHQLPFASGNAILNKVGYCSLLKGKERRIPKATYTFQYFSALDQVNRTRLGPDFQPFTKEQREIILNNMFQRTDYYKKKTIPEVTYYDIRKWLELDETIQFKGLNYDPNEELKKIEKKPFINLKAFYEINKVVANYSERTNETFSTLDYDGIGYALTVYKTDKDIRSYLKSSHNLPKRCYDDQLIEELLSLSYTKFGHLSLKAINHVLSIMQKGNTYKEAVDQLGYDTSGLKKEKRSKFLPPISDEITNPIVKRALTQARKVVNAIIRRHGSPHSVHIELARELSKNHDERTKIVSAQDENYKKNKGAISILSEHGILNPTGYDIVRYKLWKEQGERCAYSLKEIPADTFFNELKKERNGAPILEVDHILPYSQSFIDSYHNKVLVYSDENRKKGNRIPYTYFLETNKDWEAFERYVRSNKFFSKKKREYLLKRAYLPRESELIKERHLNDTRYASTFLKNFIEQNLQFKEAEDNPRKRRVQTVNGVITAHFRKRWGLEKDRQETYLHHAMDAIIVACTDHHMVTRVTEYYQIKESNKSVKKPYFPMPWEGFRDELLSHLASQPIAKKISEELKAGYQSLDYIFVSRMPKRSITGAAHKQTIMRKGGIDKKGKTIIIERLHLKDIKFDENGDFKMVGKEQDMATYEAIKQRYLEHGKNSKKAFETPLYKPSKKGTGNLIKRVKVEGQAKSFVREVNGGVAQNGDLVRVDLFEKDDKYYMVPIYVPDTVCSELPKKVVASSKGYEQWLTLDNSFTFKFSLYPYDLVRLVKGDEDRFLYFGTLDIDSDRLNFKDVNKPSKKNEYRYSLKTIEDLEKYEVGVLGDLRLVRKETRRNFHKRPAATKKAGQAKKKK
Briefly: cell_activity; HEK293FT; PAM SEQ 152. To be noted: tags: SV40 NLS, 3xFLAG N-term; nucleoplasmin NLS C-term. As for the experimental part:
500 ng of plasmid comprising an expression cassette comprising a coding sequence for each fusion protein shown in Table 3 and 500 ng of plasmid comprising an expression cassette encoding an sgRNA shown in Table 4 were co-transfected into HEK293FT cells at 75-90% confluency in 24-well plates using Lipofectamine 2000 reagent (Life Technologies). Cells were then incubated at […] for 72 h. Following incubation, genomic DNA was then extracted using NucleoSpin 96 Tissue (Macherey-Nagel) following the manufacturer's protocol. The genomic region flanking the targeted genomic site was PCR amplified using the primers in Table 4 and products were purified using ZR-96 DNA Clean and Concentrator (Zymo Research) following the manufacturer's protocol. The purified PCR products were then sent for Next Generation Sequencing on Illumina MiSeq (2×250). Results were analyzed for INDEL formation or introduction of % specific cytosine mutations.
The position of each nucleotide in the target sequence was determined. “C17” indicates, for example, a cytosine at position 17 of the target sequence. The position of each nucleotide in the target sequence was determined by numbering the first nucleotide in the target sequence closest to the PAM as position 1, and the position number increases in the 3′ direction away from the PAM sequence.
For the molecule B1, the activity is 25.9 % mutated reads.
The value for B2 was 30.5 % mutated reads; that for B3 was 24.1 % mutated reads.
